Consider 2 molecules from patent US20240254222A1 (Bayer, published 2024).

For one experiment, the target named is T1, Sema3D (R&D Systems) (Homo sapiens (Human), UniProt O95025 37-777).
T1 sequence: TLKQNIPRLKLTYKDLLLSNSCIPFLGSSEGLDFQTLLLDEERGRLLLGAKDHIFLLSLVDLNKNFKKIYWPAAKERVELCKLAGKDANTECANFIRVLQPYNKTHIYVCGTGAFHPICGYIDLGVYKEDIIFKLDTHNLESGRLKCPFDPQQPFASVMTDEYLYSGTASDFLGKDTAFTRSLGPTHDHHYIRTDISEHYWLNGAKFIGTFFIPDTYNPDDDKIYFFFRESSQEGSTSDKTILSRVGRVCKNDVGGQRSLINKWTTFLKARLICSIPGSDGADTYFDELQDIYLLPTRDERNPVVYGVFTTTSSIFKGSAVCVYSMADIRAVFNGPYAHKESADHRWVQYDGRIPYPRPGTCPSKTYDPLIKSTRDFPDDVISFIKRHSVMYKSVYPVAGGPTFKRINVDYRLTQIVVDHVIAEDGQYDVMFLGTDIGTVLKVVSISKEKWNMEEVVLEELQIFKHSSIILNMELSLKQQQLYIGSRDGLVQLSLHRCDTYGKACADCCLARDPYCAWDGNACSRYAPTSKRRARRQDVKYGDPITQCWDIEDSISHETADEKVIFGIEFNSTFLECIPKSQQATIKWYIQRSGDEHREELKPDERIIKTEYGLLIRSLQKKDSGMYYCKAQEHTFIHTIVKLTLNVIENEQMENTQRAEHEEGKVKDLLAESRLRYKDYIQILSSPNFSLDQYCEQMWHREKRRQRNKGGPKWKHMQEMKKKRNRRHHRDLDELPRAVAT
Put plainly: ELISA. On the technique in general: An ELISA detects its analyte on a solid surface through an enzyme-linked reagent.

In another experiment the target is T2, Sema3E (R&D Systems) (Homo sapiens (Human), UniProt O15041 26-775).
T2 sequence: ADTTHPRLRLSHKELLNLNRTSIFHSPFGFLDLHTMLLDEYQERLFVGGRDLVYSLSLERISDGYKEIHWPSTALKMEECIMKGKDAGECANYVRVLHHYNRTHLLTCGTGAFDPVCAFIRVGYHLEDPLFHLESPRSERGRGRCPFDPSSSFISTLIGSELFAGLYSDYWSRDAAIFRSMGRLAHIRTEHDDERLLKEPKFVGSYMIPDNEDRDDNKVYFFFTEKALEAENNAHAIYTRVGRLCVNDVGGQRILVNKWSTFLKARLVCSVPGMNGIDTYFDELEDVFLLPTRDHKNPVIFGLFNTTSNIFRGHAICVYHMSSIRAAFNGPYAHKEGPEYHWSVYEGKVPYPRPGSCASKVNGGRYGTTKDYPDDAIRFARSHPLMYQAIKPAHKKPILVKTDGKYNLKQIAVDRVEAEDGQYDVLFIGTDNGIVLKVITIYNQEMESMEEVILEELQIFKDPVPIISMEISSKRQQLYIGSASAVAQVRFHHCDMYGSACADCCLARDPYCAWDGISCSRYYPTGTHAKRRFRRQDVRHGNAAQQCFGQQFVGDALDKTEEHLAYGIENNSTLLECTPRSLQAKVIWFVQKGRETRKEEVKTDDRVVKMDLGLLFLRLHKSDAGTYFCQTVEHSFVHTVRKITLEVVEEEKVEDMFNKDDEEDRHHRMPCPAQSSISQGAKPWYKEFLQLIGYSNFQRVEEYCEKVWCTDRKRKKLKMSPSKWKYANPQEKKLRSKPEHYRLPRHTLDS
The experiment is described as follows: ELISA.

Experiment [1] concerns the target T3, Human Semaphorin3A-Fc (R&D Systems), TPP-13211 (human).
T3 construct: R&D Systems 1250-S3; also called recombinant human Sema3A-Fc chimera
The experiment is described as follows: competition ELISA on coated TPP-13211, competitor biotinylated TPP-15374. The protocol:
For screening in a competition ELISA setup, human Sema3a (TPP-13211) was coated onto 384-well plates (Greiner bio-one, 781077) with a concentration of 0.5 μg/ml in coating buffer (Carbonate-Basis pH 9.6, Candor 121125) over night at 10° C. After washing the plates 3 times with 50 μl PBS 0.05% Tween the plates were blocked with 50 μl Smart Block® (Candor 113500) for 1 h at 20° C. and washed again 3 times as described.
Subsequently, 20 μl of pre-mixed antibody solution was added to the plates and incubate for 18 h at 10° C. […] The total concentration of the added antibody solution was 0.25 μg/ml. During the incubation time the antibodies bound to the plates in a competitive manner as they compete for the same epitope on the human Sema3A protein.
After subsequent washing with 50 μl PBS 0.05% Tween for 3 times, 20 μl of a Streptavidin-HRP solution (R&D Systems, DY998, 1:200 in PBS 0.05% Tween 10% Smart Block) were added and incubated for 1 h and 20° C. followed by subsequent washing 3 times with 50 μl PBS 0.05% Tween and addition of 20 μl Amplex Red solution (Invitrogen A12222, 1:1000 in NaP-buffer 50 mM pH7.6 with 1:10000 of 30% H2O2). After a final incubation for 20 min at 20° C. the signal was determined using an emission wavelength of 595 nm and excitation of 530 nm.

T3 sequence (chain, as listed by the source limits assumed): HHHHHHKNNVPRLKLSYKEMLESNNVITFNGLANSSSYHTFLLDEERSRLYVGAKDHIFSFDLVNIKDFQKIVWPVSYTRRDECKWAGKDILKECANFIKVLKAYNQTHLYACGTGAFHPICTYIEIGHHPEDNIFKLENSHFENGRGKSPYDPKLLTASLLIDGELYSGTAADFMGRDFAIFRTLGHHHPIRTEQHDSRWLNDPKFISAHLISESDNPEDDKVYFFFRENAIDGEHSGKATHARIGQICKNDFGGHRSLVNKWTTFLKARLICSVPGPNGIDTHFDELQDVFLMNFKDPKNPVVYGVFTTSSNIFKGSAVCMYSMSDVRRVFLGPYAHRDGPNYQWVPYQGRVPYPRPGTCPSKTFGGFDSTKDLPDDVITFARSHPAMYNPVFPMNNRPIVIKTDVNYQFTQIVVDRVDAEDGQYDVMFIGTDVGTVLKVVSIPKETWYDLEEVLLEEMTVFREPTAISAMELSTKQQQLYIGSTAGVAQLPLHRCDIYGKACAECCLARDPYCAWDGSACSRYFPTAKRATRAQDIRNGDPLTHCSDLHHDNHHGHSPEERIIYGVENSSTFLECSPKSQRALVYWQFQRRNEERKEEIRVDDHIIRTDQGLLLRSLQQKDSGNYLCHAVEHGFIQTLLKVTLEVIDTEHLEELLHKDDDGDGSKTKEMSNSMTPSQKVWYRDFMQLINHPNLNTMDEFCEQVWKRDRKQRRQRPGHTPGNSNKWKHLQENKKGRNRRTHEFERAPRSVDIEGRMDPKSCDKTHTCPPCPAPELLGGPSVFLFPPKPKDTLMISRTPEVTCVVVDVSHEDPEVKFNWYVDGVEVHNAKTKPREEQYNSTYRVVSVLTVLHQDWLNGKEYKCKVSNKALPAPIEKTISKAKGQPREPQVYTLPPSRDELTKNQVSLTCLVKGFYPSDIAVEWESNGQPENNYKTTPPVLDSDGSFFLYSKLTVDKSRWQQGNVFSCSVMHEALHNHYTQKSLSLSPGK

B1: TPP-15374 (antibody, human IgG1, lambda, V domains shown)
VH: EVQLLESGGGLVQPGGSLRLSCAASGFTFSSYEMNWVRQAPGKGLEWVSGISWNSGSIGYADSVKGRFTISRDNSKNTLYLQMNSLRAEDTAVYYCARSGYSSSWFDPDFDYWGQGTLVTVSS
VL: QSVLTQPPSASGTPGQRVTISCTGSSSNIGAGYDVHWYQQLPGTAPKLLIYGNSNRPSGVPDRFSGSKSGTSASLAISGLRSEDEADYYCSSYAGSNPYVVFGGGTKLTVLG
notes: human IgG1; also called IgG1, hit from panning; parental mAb
On to B1, for which the binding result with Sema3D (R&D Systems) was “no binding”. Besides, the binding result with Sema3E (R&D Systems) is reported as “no binding”. Also, in experiment [1], the “VAL norm to TPP-9809 (1 to 1 ratio)” value worked out at 0.69 and the “VAL norm to TPP-9809 (1 to 5 ratio)” value is 0.41.

B2: TPP-15370 (antibody, human IgG1, lambda, V domains shown)
VH: EVQLLESGGGLVQPGGSLRLSCAASGFTFSSYGMHWVRQAPGKGLEWVSAIGTGGDTYYADSVMGRFTISRDNSKNTLYLQMNSLRAEDTAVYYCARRDDYTSRDAFDVWGQGTLVTVSS
VL: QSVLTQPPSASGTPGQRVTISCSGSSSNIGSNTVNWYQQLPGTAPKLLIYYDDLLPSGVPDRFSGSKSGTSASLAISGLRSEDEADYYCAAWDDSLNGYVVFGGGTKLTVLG
notes: as for B1
In the case of B2, the binding result with Sema3D (R&D Systems) and with Sema3E (R&D Systems) was “no binding” throughout.
